From the supplement of paper PMC10567573

B1: RAB40B (parent)
chain: YSLTTSSTHKRSSLRKVKLVRPPQ

Variants of: B1
Assay: protein stability index of a GFP-peptide fusion (GPS, HEK-293T) (PSI 1-6); higher = more stable
Settings: c terminus: a fixed tail appended
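Note: lentivirally expressed fusions sorted by FACS into six bins by GFP to DsRed ratio, PSI derived from sequencing read proportions per bin multiplied by bin number.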

Protein stability index: each site, then its substitutions
H9: A 2.75 | L 3.26 | E 2.72 | T 3.32 | Q 3.62 | V 2.65 | P 3.08 | S 3.42 | C 2.72 | F 2.91 | D 3.22 | Y 2.38 | R 3.29 | G 3.23 | I 2.61 | N 3.11 | K 3.29 | M 2.52 | W 1.82
K10: S 3.02 | C 2.3 | I 2.02 | E 3.67 | A 3.14 | P 2.92 | T 2.43 | V 2.55 | Q 2.3 | R 3.18 | G 3.21 | M 3.3 | H 2.68 | D 3.23 | F 2.62 | N 2.85 | W 1.89 | Y 3.05 | L 2.81
S12: T 3.07 | Y 2.85 | L 2.33 | V 2.57 | R 3.32 | A 2.97 | E 3.07 | C 2.41 | N 3.16 | I 2.36 | G 3.36 | W 2.23 | H 3.16 | M 2.63 | Q 3.71 | P 3.15 | F 2.17 | D 3.71 | K 3.83
L14: Y 3.06 | D 3.83 | W 2.38 | F 2.62 | C 2.6 | R 3.69 | T 3.87 | H 3.46 | M 2.64 | E 3.82 | N 3.77 | P 3.86 | K 3.37 | G 3.79 | V 3.25 | S 3.5 | A 3.68 | I 3.37 | Q 3.98
S7: I 2.6 | A 2.84 | D 2.94 | Q 2.9 | E 3.34 | T 2.81 | R 2.62 | V 2.7 | C 2.92 | L 2.81 | G 3.23 | K 3.11 | H 3.07 | P 3.47 | W 2.24 | N 2.98 | F 2.27 | Y 2.35 | M 2.42
S13: H 3.18 | Q 3.35 | I 2.74 | R 3.4 | C 3.01 | M 2.47 | W 1.69 | G 2.86 | A 3.25 | D 2.58 | P 3.4 | K 3.49 | Y 2.53 | V 3.06 | L 2.45 | N 3.21 | F 2.12 | T 2.4 | E 3.21
R11: S 2.77 | K 3.17 | Q 3.46 | L 2.3 | Y 2.51 | G 2.83 | T 3.67 | H 3.15 | F 2.32 | E 3.33 | A 3.68 | I 2.46 | M 2.99 | D 3.4 | W 1.87 | V 2.52 | C 2.59 | P 2.75 | N 2.87
K18: S 3.06 | Q 3.09 | M 2.22 | R 2.38 | G 2.81 | C 2.63 | E 3.43 | P 3.47 | F 2.54 | L 2.49 | I 2.34 | A 3.2 | D 3.81 | H 3.71 | N 2.98 | W 2.32 | Y 2.05 | T 2.81 | V 2.68
V17: D 3.33 | T 3.09 | W 2.53 | M 2.75 | A 3.28 | K 3.47 | Q 3.38 | C 2.91 | P 3.13 | S 3.3 | L 2.77 | G 3.12 | I 2.63 | R 4.01 | Y 2.98 | N 3.39 | H 3.55 | F 2.67 | E 3.5
K16: V 2.1 | F 2.13 | N 3.19 | E 3.52 | P 3.06 | S 2.93 | Q 3.08 | H 2.54 | R 2.99 | C 2.58 | G 2.81 | M 2.35 | D 3.59 | W 2.14 | I 1.95 | A 2.93 | L 2.35 | T 3.03 | Y 2.9
S2: H 2.09 | Q 2.74 | C 2.3 | F 1.82 | P 2.74 | K 2.95 | W 1.64 | I 1.98 | Y 1.93 | M 2.81 | D 3.75 | A 2.44 | N 2.96 | E 3.12 | L 2.48 | T 2.81 | G 3.06 | R 3.56 | V 2.38
T4: Y 2.17 | A 3.06 | K 3.33 | S 3.38 | N 3.31 | D 3.85 | Q 3.82 | M 2.55 | V 2.7 | L 3.26 | C 2.48 | F 1.77 | G 3.33 | P 3.16 | E 3.52 | I 2.53 | H 2.81 | R 3.33 | W 1.35
S6: Y 2.48 | A 2.88 | G 3.34 | F 2.38 | K 3.33 | D 3.05 | N 2.77 | I 2.58 | T 3.29 | M 2.62 | W 2.17 | V 2.83 | P 2.63 | Q 2.92 | E 3.57 | C 2.95 | L 2.93 | H 3.42 | R 2.96
R15: M 2.46 | K 3.24 | G 2.97 | D 3.54 | L 2.44 | A 2.49 | E 3.25 | Q 3.35 | H 2.51 | N 2.94 | Y 1.86 | P 3.47 | F 1.94 | V 2.48 | I 2.13 | C 2.81 | S 2.95 | T 3.02 | W 2.12
L19: K 4.09 | E 3.04 | D 3.71 | A 4.17 | N 3.39 | F 3.1 | M 3.13 | C 3.37 | H 3.33 | I 2.9 | G 3.7
T8: V 2.53 | N 3.4 | K 3.02 | W 2.49 | R 2.57 | P 3.38 | G 3.71 | A 2.82 | I 2.63 | S 2.89 | F 2.63 | C 2.8 | Q 3.26 | E 3.51 | M 2.98 | Y 3 | D 3.32 | L 2.43 | H 2.76
T5: Y 2.53 | M 2.97 | C 2.62 | W 1.45 | I 1.86 | G 3.25 | R 3.43 | D 3.4 | A 3.48 | F 2.05 | K 3.2 | P 3.05 | V 2.79 | Q 3.44 | L 2.91 | N 3.83 | S 3.07 | E 3.62 | H 2.81
L3: P 2.96 | Y 2.24 | W 2.02 | R 3.34 | K 3.43 | D 3.7 | H 3.06 | M 2.97 | S 3.13 | I 2.88 | C 3 | F 2.57 | E 3.94 | G 3.18 | T 3.08 | V 3.17 | Q 3.31 | N 3.3 | A 3.88
